Test results taken from PMC6086383 (Archives of biochemistry and biophysics, 2018).

Target: porcine milk butyrylcholinesterase (Sus scrofa (domestic pig), UniProt A0A4X1VEU5)
Assay: ELISA

Chain of porcine milk butyrylcholinesterase (P32752 whole entry): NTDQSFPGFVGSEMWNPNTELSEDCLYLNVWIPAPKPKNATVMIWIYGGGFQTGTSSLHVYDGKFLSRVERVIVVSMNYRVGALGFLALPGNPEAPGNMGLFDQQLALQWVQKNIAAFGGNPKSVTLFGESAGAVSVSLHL

B1: mouse anti-HuBChE monoclonal antibody B2 18-5 (antibody, V domains shown)
VH: QVQLQQSGAELVRPGSSVKISCKASGYAFSDYWMNWVKQRPGQGLEWIGQIYPGDGDTYYNGKFKGKATLTADKSSSTAYMQLSSLISEDSAVYFCARSRPLLDYSMHYWGQGASVTVSS
VL: DIQMTQSSSSFSVSLGDRVTITCKTSEDIYNRLAWYQQKPGNAPRLLISGATSLETGVPSRFSGSGSGEDFTLSITSLQTEDVATYYCQQYWSTPYTFGGGTKLEIK
  binding result: no binding
